What was measured:
[1] = test system: MyrPalm-mYFP in HEK293 cells; assay: Co-immunoprecipitation, MyrPalm-mYFP (negative control); assay type: cell-based; conditions: 48 h expression, anti-GFP immunoprecipitation
Protocol: (§1) HEK293 cells stably expressing N-terminal GFP-tagged ADRB1, ADRB2, CALCR and M1 or MyrPalm-mYFP were transfected with pcDNA3.1 containing the sequence for a central domain of GASP-1 (AA 380 to 1073) using JetPEI reagent (polyplus transfection) according to the instructions from the manufacturer. After 48 h of expression, cells were washed twice with PBS and lysed in a buffer containing 10 mM Tris-HCl, pH 7.4, 150 mM NaCl, 25 mM KCl, 0.3% Triton X-100 and cOmplete protease inhibitors (Roche) for 1 h at 4°C under agitation. 500 µg of cleared lysates were incubated with 1 µg of a mouse monoclonal anti-GFP antibody (Invitrogen) overnight at 4°C, followed by an incubation with 40 µl of protein A-Sepharose beads for an additional 2 h at 4°C. Beads were then washed five times in lysis buffer and precipitates were resolved on an 8% gel by SDS–PAGE and electrotransferred to immobilon-P membranes (Millipore) in 50 mM Tris-boric acid for 1 h at 300 mA. Membranes were blocked with 5% non-fat powder milk in TBS-Tween (50 mM Tris-HCl pH 8, 150 mM NaCl, 0.4% Tween-20) for 1 h at room temperature. […] For immunodetection of GASP or GFP-tagged receptors directly from cell lysates, 10 µg of proteins were loaded on SDS gels and analyzed following the procedure described above. Finally, membranes were washed in TBS-Tween and detected by chemiluminescence (ECL prime, GE Healthcare). […]

GST-fused DOR C-tail = assay: GST-pull down, DOR C-tail; assay type: binding; conditions: percent of full-length GASP-1 interaction; three independent experiments
Method in brief: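 Radiolabelled GASPs ([35S]-Met, coupled transcription/translation) were pulled down by bead-immobilized GST-receptor C-tails, 1 h, 4°C, in 20 mM Tris-HCl pH 7.4, 150 mM NaCl, 1% Triton X-100, 10% glycerol. After five washes, retained GASP was imaged by phosphorimager; values are means of ≥3 experiments.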

[2] = test system: GFP-tagged CALCR in HEK293 cells; assay: Co-immunoprecipitation, CALCR; assay type: cell-based; conditions: 48 h expression, anti-GFP immunoprecipitation
Protocol: as §1

[3] = test system: GFP-tagged M1 receptor in HEK293 cells; assay: Co-immunoprecipitation, M1; assay type: cell-based; conditions: 48 h expression, anti-GFP immunoprecipitation
Protocol: as §1

GST-fused ADRB1 C-tail = assay: GST-pull down, ADRB1 C-tail; assay type: binding; conditions: percent of full-length GASP-1 interaction; three independent experiments
Method in brief: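 Phosphorimager quantification of [35S]-labelled GASP retained on GST-fused receptor C-tails after SDS-PAGE. Binding: glutathione-bead-bound fusions plus in vitro translated GASP, 1 h at 4°C, pH 7.4 Tris/NaCl/EDTA/DTT buffer with 1% Triton X-100. Means of at least three independent experiments.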

B1: central domain of GASP-1: central portion of GASP-1 (AA 380 to 1073) that contains 19 GASP motif (protein)
chain: MTKEEAKTKARARAKQEARSEEEALIGTWFWATDESSMADEASIESSLQVEDESIIGSWFWTEEEASMGTGASSKSRPRTDGERIGDSLFGAREKTSMKTGAEATSESILAADDEQVIIGSWFWAGEEVNQEAEEETIFGSWFWVIDAASVESGVGVSCESRTRSEEEEVIGPWFWSGEQVDIEAGIGEEARPGAEEETIFGSWFWAENQTYMDCRAETSCDTMQGAEEEEPIIGSWFWTRVEACVEGDVNSKSSLEDKEEAMIPCFGAKEEVSMKHGTGVRCRFMAGAEETNNKSCFWAEKEPCMYPAGGGSWKSRPEEEEDIVNSWFWSRKYTKPEAIIGSWLWATEESNIDGTGEKAKLLTEEETIINSWFWKEDEAISEATDREESRPEAEEGDIIGSWFWAGEEDRLEPAAETREEDRLAAEKEGIVGSWFGAREETIRREAGSCSKSSPKAEEEEVIIGSWFWEEEASPEAVAGVGFESKPGTEEEEITVGSWFWPEEEASIQAGSQAVEEMESETEEETIFGSWFWDGKEVSEEAGPCCVSKPEDDEEMIVESWFWSRDKAIKETGTVATCESKPENEEGAIVGSWFEAEDEVDNRTDNGSNCGSRTLADEDEAIVGSWFWAGDEAHFESNPSPVFRAICRSTCSVEQEPDPSRRPQSWEEVTVQFKPGPWGRVGFPSISPFRFPKE
modifications: left off: GST, N-terminal, kept
notes: central portion of GASP-1 (AA 380 to 1073) that contains 19 GASP motif
B1 was tested, and the “co-immunoprecipitation with MyrPalm-mYFP” value [1] was “no co-immunoprecipation was observed”, the “interaction with DOR C-tail relative to full-length GASP-1” value (GST-fused DOR C-tail) was roughly 30% and the “co-immunoprecipitation with CALCR” value [2] was “co-immunoprecipitated”. The “co-immunoprecipitation with M1” value [3] was “co-immunoprecipitated” and the “interaction with ADRB1 C-tail relative to full-length GASP-1” value (GST-fused ADRB1 C-tail) was “around 70%”.
